In patent publication US20030211076A1, “Compositions and methods for treatment of proliferative disorders” (priority 2003, published 2003):

Assays:
[1] = molecular target: T1, lysyl oxidase (LO) (Bos taurus, UniProt P33072); assay: LO-dependent H2O2 release, horseradish peroxidase-coupled fluorescence assay (substrate potential for LO); format: biochemical
T1 construct: per mature LO molecule (32 kD); from tissue
T1 sequence (P33072 170-418): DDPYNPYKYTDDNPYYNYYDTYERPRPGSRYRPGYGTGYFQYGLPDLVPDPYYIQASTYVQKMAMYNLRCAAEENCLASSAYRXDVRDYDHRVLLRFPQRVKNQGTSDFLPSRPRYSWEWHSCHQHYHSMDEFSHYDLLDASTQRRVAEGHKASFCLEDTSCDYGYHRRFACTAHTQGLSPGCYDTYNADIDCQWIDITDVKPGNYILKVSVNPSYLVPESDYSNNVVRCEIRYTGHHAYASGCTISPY
Experimental: The oxidation of a primary amine substrate by LO yields stoichiometric amounts of the corresponding aldehyde, hydrogen peroxide and ammonia, as shown: RCH2NH2+O2+H2O→RCHO+H2O2+NH3 (Kagan, 1986). To assess the substrate potential of FGF2, LO-dependent H2O2 release was monitored in assays using FGF2 as the sole substrate, using both the optimum temperature for LO activity of 55° C. and the physiological temperature of 37° C. (Trackman et al., 1981).
LO reaction with FGF2 as a substrate was assessed by a horseradish peroxidase-coupled fluorescence assay for H2O2 production. Reaction mixtures contained 0.25 mg of sodium homovanillate(HVA), 40 μg of HRP, and FGF2 at doses as indicated below in 0.05 M sodium borate buffer, pH 8.2, in a final volume of 2 ml. Assays were initiated by the addition of LO to reaction mixtures. H2O2 release was continuously monitored at excitation and emission wavelengths of 315 and 425 nm, respectively, at a constant temperature of 55° C. or 37° C., as specified, in the thermostatted cuvette chamber of an SLM Aminco Bowman Series 2 Luminescence Spectrometer. All activity data were corrected for background rates of H2O2 release determined in complete assay mixtures supplemented with 200 μM BAPN, an irreversible inhibitor of LO. In FIG. 4, solid curves represent the time course of H2O2 release at 55° C. in the reaction of 0.16 μM LO with 0.23 (a), 0.45 (b) and 0.9 (c) μM FGF2, respectively. Dotted curve (d) represents the time course of H2O2 release in the reaction of 0.16 μM LO with 0.9 μM FGF2 at 37° C. The same data were obtained from three separate experiments.
Using the fluorometric assay (Trackman et al., 1981) to monitor LO-dependent H2O2 release in vitro, the substrate potential of other growth factors was also assessed. Major members of the FGF family tested included FGF 1, 4, 5, 6, 7 and EGF (note: All factors are human recombinant forms purchased from R & D Systems, Inc., Minneapolis, Minn.).
A human recombinant disulfide-linked dimer of VEGF165 (MW: 42 kDa)(R & D Systems) as a sole substrate was tested by using the standard in vitro LO catalysis assays as described above for FIG. 4 (Trackman et al., 1981). Curves represent the time course of H2O2 release at 55° C. (a) or 37° C. (b) in the reaction of 0.10 μM LO with 0.45 μM VEGF165. All activity data were corrected for background rates of H2O2 release determined in complete assay mixtures supplemented with the same amounts of LO preincubated with 100 μM BAPN for 15 min at 37° C. The same data were obtained from three separate experiments.
The standard in vitro LO catalysis assays as described above for FIG. 4 (Trackman et al., 1981) using human recombinant PDGF-AB (R & D Systems) as a sole substrate was tested. […] In FIG. 19, curves represent the time course of H2O2 release at 55° C. (a) and 37° C. (b) in the reaction of 0.11 μM LO with 0.46 μM PDGF-AB, respectively. All activity data were corrected for background rates of H2O2 release determined in complete assay mixtures supplemented with the same amounts of LO preincubated with 100 μM BAPN for 15 minutes at 37° C. The same data were obtained from three separate experiments.
To analyze the substrate potential of Tat, the standard in vitro LO catalysis assays as described in FIG. 4 (Trackman et al., 1981) was performed at the optimum temperature of 55° C. and at the physiological temperature of 37° C. A recombinant Tat with 9 lysines in a total of 86 amino acids was used as a sole substrate. FIG. 12A represents a dose and temperature-dependent response. Curves represent the time course of H2O2 release at 55° C. (solid) or 37° C. (dotted) in the reaction of 0.10 μM LO with 0.22 (a and d), 0.43 (b and e) and 0.85 (c and f) μM Tat, respectively. All activity data were corrected for background rates of H2O2 release determined in complete assay mixtures supplemented with the same amounts of LO preincubated with 100 μM BAPN for 15 min at 37° C. […]

[2] = test system: porcine pulmonary arterial vascular endothelial cells (VEC); assay: Growth of Tat-stimulated vascular endothelial cells (cell counting, phase-contrast microscopy); format: cell-based; conditions: 3 days, 5% FBS/M199
Experimental: Stimulation of cell proliferation of porcine pulmonary arterial vascular endothelial cells (VEC) was tested with LO-oxidized Tat. VEC (2×10^4) were plated and incubated overnight in 35 mm-dishes containing 2 ml 15% FBS/M199 medium, and then refed with 5% FBS/M199 with different treatment regimens as shown in A, B and C of FIG. 13. FIG. 13A represents a dose response of Tat-stimulated cell growth. Media were supplemented with Tat at the indicated doses and cells were incubated for additional 3 days. Cultures were refed once during the incubation period with fresh media supplemented with Tat at indicated doses. Cells were harvested by trypsinization and counted with a hemacytometer. FIG. 13B represents the LO inhibition of Tat-stimulated cell growth. FIG. 13C represents the effects of inactivation of LO by BAPN on Tat-stimulated cell growth. LO: 3 or 10 nM, Tat: 10 ng ml^−1, BAPN: 100 μM. Data represent the means (±sd) of three separate experiments each assessed with triplicate dishes.
Numerical and morphological alterations in Tat-stimulated VEC cells treated with LO were observed under phase-contrast microscopy (25'). Cells were cultured as described in FIG. 13 and treated with additives as indicated below. The following represents FIG. 14 phase contrast microscopy: A, control; B, 10 ng ml^−1Tat; C, 10 ng ml^−1 Tat+3 nM LO; D, 10 ng ml^−1 Tat+3 nM LO that was preincubated with 100 μM BAPN for 15 min at 370; E, 100 μM BAPN, alone, and F, 3 nM LO, alone.

[3] = test system: VEC on Matrigel; assay: Angiogenic response of Tat-stimulated VEC on Matrigel; format: cell-based; conditions: 10 ng/ml Tat, 1 h preincubation and 3 h Tat exposure
Experimental: VEC grown on Matrigel, a solid gel of basement membrane proteins, rapidly align and form capillary-like structures providing a convenient in vitro model for angiogenesis studies (Albini et al., 1995; Grant et al.). Tat has been reported to enhance this in vitro morphogenesis of VEC consistent with its angiogenic property (Albini et al., 1995).
Cells (3×10^5) were plated on Matrigel-coated dishes. After 1 h incubation, various reagents were added to each culture. […] The following represents FIG. 15 phase-contrast microscopy: A, control; B, 10 ng ml^−1 Tat; C, 10 ng ml^−1 Tat+10 nM LO; D, 10 ng ml^−1 Tat+10 nM LO that was preincubated with 100 μM BAPN for 15 min at 370; E, 100 μM BAPN, alone, and F, 10 nM LO, alone.

Tat: recombinant HIV-1 Tat with 9 lysines in a total of 86 amino acids
maximum release of H2O2 per mole of Tat ([1]; 37° C., 0.1 μM LO, 0.22 μM Tat): 4.85 moles of H2O2 per mole of Tat | maximum release of H2O2 per mole of Tat ([1]; 37° C., 0.1 μM LO, 0.43 μM Tat): 4.75 moles of H2O2 per mole of Tat | maximum release of H2O2 per mole of Tat ([1]; 37° C., 0.1 μM LO, 0.85 μM Tat): 4.80 moles of H2O2 per mole of Tat | H2O2 released per mole of Tat, time course ([1]; 37° C., 0.1 μM LO, 20 min): 4.05±0.05 moles of H2O2 released per mole of Tat | H2O2 released per mole of Tat, time course ([1]; 37° C., 0.1 μM LO, 30 min): 4.80±0.04 moles of H2O2 released per mole of Tat | maximum release of H2O2 per mole of Tat, average ([1]; 37° C., 0.1 μM LO, average over 0.22, 0.43 and 0.85 μM Tat): 4.80±0.05 moles of H2O2 per mole of Tat | molar ratio of H2O2 released per mole of Tat at the plateau ([1]; 55° C., 0.1 μM LO, 0.22 μM Tat): 8.42 | molar ratio of H2O2 released per mole of Tat at the plateau ([1]; 55° C., 0.1 μM LO, 0.43 μM Tat): 8.88 | molar ratio of H2O2 released per mole of Tat at the plateau ([1]; 55° C., 0.1 μM LO, 0.85 μM Tat): 9.31 | molar ratio of H2O2 released per mole of Tat, mean±standard deviation ([1]; 55° C., 0.1 μM LO, mean over 0.22, 0.43 and 0.85 μM Tat): 8.87±0.45 | substrate of LO (in words) ([1]; factor as sole substrate, LO-dependent H2O2 release in vitro): excellent substrate of LO | dose of maximum stimulation of cell proliferation [2]: 10 ng/mL | formation of capillary like structures [3]: facilitated the formation of capillary like structures
